Data from the supplement of paper PMC11908140.

B1: library; numbered along this chain (parent)
chain: MRKPRAAVGSGHRKQAASQEGRQKHAKNNSQAKPSACDGLARQPEEVVLQASVSSYHLFRDVAEVTAFRGSLLSWYDQEKRDLPWRRRAEDEMDLDRRAYAVWVSEVMLQQTQVATVINYYTGWMQKWPTLQDLASASLEEVNQLWAGLGYYSRGRRLQEGARKVVEELGGHMPRTAETLQQLLPGVGRYTAGAIASIAFGQATGVVDGNVARVLCRVRAIGADPSSTLVSQQLWGLAQQLVDPARPGDFNQAAMELGATVCTPQRPLCSQCPVESLCRARQRVEQEQLLASGSLSGSPDVEECAPNTGQCHLCLPPSEPWDQTLGVVNFPRKASRKPPREESSATCVLEQPGALGAQILLVQRPNSGLLAGLWEFPSVTWEPSEQLQRKALLQELQRWAGPLPATHLRHLGEVVHTFSHIKLTYQVYGLALEGQTPVTTVPPGARWLTQEEFHTAAVSTAMKKVFRVYQGQQPGTCMGSKRSQVSSPCSRKKPRMGQQVLDNFFRSHISTDAHSLNSAAQ

Variants of: B1
Experiment: 8OG:A repair function score (normalized; synonymous = 0, nonsense = -1) (normalized log-likelihood score); higher = more repair activity (WT-like)
Details: with 8OG:A DNA repair reporter (GFP) in HEK-293 MUTYH KO cells
Procedure, shortened: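 With 10 pg/ml doxycycline, MUTYH knockout HEK-293 cells carrying lentiviral MUTYH cDNA NNN codon-scan libraries were co-transfected with mCherry and an 8OG:A GFP repair reporter. Viable mCherry+ cells were sorted into GFP+ (repair) and GFP− bins at 72 h, three replicates per tile, and tile amplicons were sequenced. Per-tile Rosace fitness scores were then normalized into a repair function score anchored on synonymous and nonsense distributions. Medians were fixed at 0 for synonymous and -1 for nonsense, excluding variants under 300 counts per million at the start.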

Row | Variant | 8OG:A repair function score
1 | MRKPRAAVGSGHRKQAASQEGRQKHAKNNSQAKPSACDGLARQPEEVVLQASVSSYHLFRDVAEVTAFRGSLLSWYDQEKRDLPWRRRAEDEMDLDRRAYAVWVSEVMLQQTQVATVINYYTGWMQKWPTLQDLASASLEEVNQLWAGLGYYSRGRRLQEGARKVVEELGGHMPRTAETLQQLLPGVGRYTAGAIASIAFGQATGVVDGNVARVLCRVRAIGADPSSTLVSQQTWGLAQQLVDPARPGDFNQAAMELGATVCTPQRPLCSQCPVESLCRARQRVEQEQLLASGSLSGSPDVEECAPNTGQCHLCLPPSEPWDQTLGVVNFPRKASRKPPREESSATCVLEQPGALGAQILLVQRPNSGLLAGLWEFPSVTWEPSEQLQRKALLQELQRWAGPLPATHLRHLGEVVHTFSHIKLTYQVYGLALEGQTPVTTVPPGARWLTQEEFHTAAVSTAMKKVFRVYQGQQPGTCMGSKRSQVSSPCSRKKPRMGQQVLDNFFRSHISTDAHSLNSAAQ [L234T] | -0.464
2 | MRKPRAAVGSGHRKQAASQEGRQKHAKNNSQAKPSACDGLARQPEEVVLQASVSSYHLFRDVAEVTAFRGSLLSWYDQEKRDLPWRRRAEDEMDLDRRAYAVWVSEVMLQQTQVATVINYYTGWMQKWPTFQDLASASLEEVNQLWAGLGYYSRGRRLQEGARKVVEELGGHMPRTAETLQQLLPGVGRYTAGAIASIAFGQATGVVDGNVARVLCRVRAIGADPSSTLVSQQLWGLAQQLVDPARPGDFNQAAMELGATVCTPQRPLCSQCPVESLCRARQRVEQEQLLASGSLSGSPDVEECAPNTGQCHLCLPPSEPWDQTLGVVNFPRKASRKPPREESSATCVLEQPGALGAQILLVQRPNSGLLAGLWEFPSVTWEPSEQLQRKALLQELQRWAGPLPATHLRHLGEVVHTFSHIKLTYQVYGLALEGQTPVTTVPPGARWLTQEEFHTAAVSTAMKKVFRVYQGQQPGTCMGSKRSQVSSPCSRKKPRMGQQVLDNFFRSHISTDAHSLNSAAQ [L131F] | 0.00215
3 | MRKPRAAVGSGHRKQAASQEGRQKHAKNNSQAKPSACDGLARQPEEVVLQASVSSYHLFRDVAEVTAFRGSLLSWYDQEKRDLPWRRRAEDEMDLDRRAYAVWVSEVMLQQTQVATVPNYYTGWMQKWPTLQDLASASLEEVNQLWAGLGYYSRGRRLQEGARKVVEELGGHMPRTAETLQQLLPGVGRYTAGAIASIAFGQATGVVDGNVARVLCRVRAIGADPSSTLVSQQLWGLAQQLVDPARPGDFNQAAMELGATVCTPQRPLCSQCPVESLCRARQRVEQEQLLASGSLSGSPDVEECAPNTGQCHLCLPPSEPWDQTLGVVNFPRKASRKPPREESSATCVLEQPGALGAQILLVQRPNSGLLAGLWEFPSVTWEPSEQLQRKALLQELQRWAGPLPATHLRHLGEVVHTFSHIKLTYQVYGLALEGQTPVTTVPPGARWLTQEEFHTAAVSTAMKKVFRVYQGQQPGTCMGSKRSQVSSPCSRKKPRMGQQVLDNFFRSHISTDAHSLNSAAQ [I118P] | -0.112
4 | MRKPRAAVGSGHRKQAASQEGRQKHAKNNSQAKPSACDGLARQPEEVVLQASVSSYHLFRDVAEVTAFRGSLLSWYDQEKRDLPWRRRAEDEMDLDRRAYAVWVSEVMLQQTQVATVINYYTGWDQKWPTLQDLASASLEEVNQLWAGLGYYSRGRRLQEGARKVVEELGGHMPRTAETLQQLLPGVGRYTAGAIASIAFGQATGVVDGNVARVLCRVRAIGADPSSTLVSQQLWGLAQQLVDPARPGDFNQAAMELGATVCTPQRPLCSQCPVESLCRARQRVEQEQLLASGSLSGSPDVEECAPNTGQCHLCLPPSEPWDQTLGVVNFPRKASRKPPREESSATCVLEQPGALGAQILLVQRPNSGLLAGLWEFPSVTWEPSEQLQRKALLQELQRWAGPLPATHLRHLGEVVHTFSHIKLTYQVYGLALEGQTPVTTVPPGARWLTQEEFHTAAVSTAMKKVFRVYQGQQPGTCMGSKRSQVSSPCSRKKPRMGQQVLDNFFRSHISTDAHSLNSAAQ [M125D] | -0.755
5 | MRKPRAAVGSGHRKQAASQEGRQKHAKNNSQAKPSACDGLARQPEEVVLQASVSSYHLFRDVAEVTAFRGSLLSWYDQEKRDLPWRRRAEDEMDLDRRAYAVWVSEVMLQQTQVATVINYYTGWFQKWPTLQDLASASLEEVNQLWAGLGYYSRGRRLQEGARKVVEELGGHMPRTAETLQQLLPGVGRYTAGAIASIAFGQATGVVDGNVARVLCRVRAIGADPSSTLVSQQLWGLAQQLVDPARPGDFNQAAMELGATVCTPQRPLCSQCPVESLCRARQRVEQEQLLASGSLSGSPDVEECAPNTGQCHLCLPPSEPWDQTLGVVNFPRKASRKPPREESSATCVLEQPGALGAQILLVQRPNSGLLAGLWEFPSVTWEPSEQLQRKALLQELQRWAGPLPATHLRHLGEVVHTFSHIKLTYQVYGLALEGQTPVTTVPPGARWLTQEEFHTAAVSTAMKKVFRVYQGQQPGTCMGSKRSQVSSPCSRKKPRMGQQVLDNFFRSHISTDAHSLNSAAQ [M125F] | -0.273
6 | MRKPRAAVGSGHRKQAASQEGRQKHAKNNSQAKPSACDGLARQPEEVVLQASVSSYHLFRDVAEVTAFRGSLLSWYDQEKRDLPWRRRAEDEMDLDRRIYAVWVSEVMLQQTQVATVINYYTGWMQKWPTLQDLASASLEEVNQLWAGLGYYSRGRRLQEGARKVVEELGGHMPRTAETLQQLLPGVGRYTAGAIASIAFGQATGVVDGNVARVLCRVRAIGADPSSTLVSQQLWGLAQQLVDPARPGDFNQAAMELGATVCTPQRPLCSQCPVESLCRARQRVEQEQLLASGSLSGSPDVEECAPNTGQCHLCLPPSEPWDQTLGVVNFPRKASRKPPREESSATCVLEQPGALGAQILLVQRPNSGLLAGLWEFPSVTWEPSEQLQRKALLQELQRWAGPLPATHLRHLGEVVHTFSHIKLTYQVYGLALEGQTPVTTVPPGARWLTQEEFHTAAVSTAMKKVFRVYQGQQPGTCMGSKRSQVSSPCSRKKPRMGQQVLDNFFRSHISTDAHSLNSAAQ [A99I] | -0.617
7 | MRKPRAAVGSGHRKQAASQEGRQKHAKNNSQAKPSACDGLARQPEEVVLQASVSSYHLFRDVAEVTAFRGSLLSWYDQEKRDLPWRRRAEDEMDLDRRAYAVWVSEVMLQQTQVATVINYYTGWMQKWPTLQDLASASLEEVNQLWAGLGYYSRGRRLQEGARKVVEELGGHMPRTAETLQQLLPGVGRYTAGAIASIAFGQATGVVDGNVARVLCRVRAIGADPSSTLVSQQLWGLAQQLVDPARPGDFNQAAMELGATVCTPQRPLCSQCPVESECRARQRVEQEQLLASGSLSGSPDVEECAPNTGQCHLCLPPSEPWDQTLGVVNFPRKASRKPPREESSATCVLEQPGALGAQILLVQRPNSGLLAGLWEFPSVTWEPSEQLQRKALLQELQRWAGPLPATHLRHLGEVVHTFSHIKLTYQVYGLALEGQTPVTTVPPGARWLTQEEFHTAAVSTAMKKVFRVYQGQQPGTCMGSKRSQVSSPCSRKKPRMGQQVLDNFFRSHISTDAHSLNSAAQ [L277E] | -0.204
8 | MRKPRAAVGSGHRKQAASQEGRQKHAKNNSQAKPSACDGLARQPEEVVLQASVSSYHLFRDVAEVTAFRGSLLSWYDQEKRDLPWRRRAEDEMDLDRRAYAVWVSEVMLQQTQVATVINYYTGWMQKWPTLQDLASASLEEVNQLWAGLGYYSRGRRLQEGARKVVEELGGHMPRTAETLQQLLPGVGRYTAGAIASIAFGQATGVVDGNVARVLCRVRAIGADPSSTLVSQQLWGLAQQLVDPARPGDFNQAAMELGATVCTPQRPLCSQCPVESLCRARQRVEQEQLLASGSLSGSPDVEECAPNTGQCILCLPPSEPWDQTLGVVNFPRKASRKPPREESSATCVLEQPGALGAQILLVQRPNSGLLAGLWEFPSVTWEPSEQLQRKALLQELQRWAGPLPATHLRHLGEVVHTFSHIKLTYQVYGLALEGQTPVTTVPPGARWLTQEEFHTAAVSTAMKKVFRVYQGQQPGTCMGSKRSQVSSPCSRKKPRMGQQVLDNFFRSHISTDAHSLNSAAQ [H312I] | 0.0886
9 | MRKPRAAVGSGHRKQAASQEGRQKHAKNNSQAKPSACDGLARQPEEVVLQASVSSYHLFRDVAEVTAFRGSLLSWYDQEKRDLPWRRRAEDEMDLDRRAYAVWVSEVMLQQTQVATVINYYTGWMQKWPTLQDLASASLEEVNQLWAGLGYYSRGRRLQEGARKVVEELGGHMPRTAETLQQLLPGVGRYTAGAIASIAFGQATGVVDGNVARVLCRVRAIGADPSSTLVSQQLWGLAQQLVDPARPGDFNQAAMELGATVCTPQRPLCSQCPVESLCRARQRVEQEQLLASGSLSGSPDVEECAPNTGQCHLCLPPSEPWDQTLGVVNFPRKASRKPPREESSATCVLEQPGALGHQILLVQRPNSGLLAGLWEFPSVTWEPSEQLQRKALLQELQRWAGPLPATHLRHLGEVVHTFSHIKLTYQVYGLALEGQTPVTTVPPGARWLTQEEFHTAAVSTAMKKVFRVYQGQQPGTCMGSKRSQVSSPCSRKKPRMGQQVLDNFFRSHISTDAHSLNSAAQ [A357H] | -0.147
10 | MRKPRAAVGSGHRKQAASQEGRQKHAKNNSQAKPSACDGLARQPEEVVLQASVSSYHLFRDVAEVKAFRGSLLSWYDQEKRDLPWRRRAEDEMDLDRRAYAVWVSEVMLQQTQVATVINYYTGWMQKWPTLQDLASASLEEVNQLWAGLGYYSRGRRLQEGARKVVEELGGHMPRTAETLQQLLPGVGRYTAGAIASIAFGQATGVVDGNVARVLCRVRAIGADPSSTLVSQQLWGLAQQLVDPARPGDFNQAAMELGATVCTPQRPLCSQCPVESLCRARQRVEQEQLLASGSLSGSPDVEECAPNTGQCHLCLPPSEPWDQTLGVVNFPRKASRKPPREESSATCVLEQPGALGAQILLVQRPNSGLLAGLWEFPSVTWEPSEQLQRKALLQELQRWAGPLPATHLRHLGEVVHTFSHIKLTYQVYGLALEGQTPVTTVPPGARWLTQEEFHTAAVSTAMKKVFRVYQGQQPGTCMGSKRSQVSSPCSRKKPRMGQQVLDNFFRSHISTDAHSLNSAAQ [T66K] | -0.0706
11 | MRKPRAAVGSGHRKQAASQEGRQKHAKNNSQAKPSACDGLARQPEEVVLQASVSSYHLFRDVAEVTAFRGSLLSWYDQEKRDLPWRRRAEDEMDLDRRAYAVWVSEVMLQQTQVATVINYYTGWMQKWPTLQDLASASLEEVNQLWAGLGYYSRGRRLQEGARKVVEELGGHMPRTAETLQQLLPGVGRYTAGAIASIAFGQATGVVDGNVARVLCRVRAIGADPSSTLVSQQLWGLAQQLVDPARPGDFNQAAMELGATVCTPQRPLCSQCPVESLCRARQRVEQEQLLASGSLSGSPDVEECAPNTGQCHLCLPPSEPWDQTLGVVNFPRKASRKPPREESSATCVLEQPGALGAQILLVQRPNSGLLAGLWEFPSVTWEPSEQLQRKALLQELQRWAGPLPATHLRHLGEVVHTFSHIWLTYQVYGLALEGQTPVTTVPPGARWLTQEEFHTAAVSTAMKKVFRVYQGQQPGTCMGSKRSQVSSPCSRKKPRMGQQVLDNFFRSHISTDAHSLNSAAQ [K422W] | -0.317
12 | MRKPRAAVGSGHRKQAASQEGRQKHAKNNSQAKPSACDGLARQPEEVVLQASVESYHLFRDVAEVTAFRGSLLSWYDQEKRDLPWRRRAEDEMDLDRRAYAVWVSEVMLQQTQVATVINYYTGWMQKWPTLQDLASASLEEVNQLWAGLGYYSRGRRLQEGARKVVEELGGHMPRTAETLQQLLPGVGRYTAGAIASIAFGQATGVVDGNVARVLCRVRAIGADPSSTLVSQQLWGLAQQLVDPARPGDFNQAAMELGATVCTPQRPLCSQCPVESLCRARQRVEQEQLLASGSLSGSPDVEECAPNTGQCHLCLPPSEPWDQTLGVVNFPRKASRKPPREESSATCVLEQPGALGAQILLVQRPNSGLLAGLWEFPSVTWEPSEQLQRKALLQELQRWAGPLPATHLRHLGEVVHTFSHIKLTYQVYGLALEGQTPVTTVPPGARWLTQEEFHTAAVSTAMKKVFRVYQGQQPGTCMGSKRSQVSSPCSRKKPRMGQQVLDNFFRSHISTDAHSLNSAAQ [S54E] | 0.00656
